Assay results as given in publication PMC12767022.

Molecular target: MBP‐Spz, maltose‐binding protein‐tagged Spz (Drosophila melanogaster) (UniProt P48607)
Chain of UniProt P48607 (P48607 26-326): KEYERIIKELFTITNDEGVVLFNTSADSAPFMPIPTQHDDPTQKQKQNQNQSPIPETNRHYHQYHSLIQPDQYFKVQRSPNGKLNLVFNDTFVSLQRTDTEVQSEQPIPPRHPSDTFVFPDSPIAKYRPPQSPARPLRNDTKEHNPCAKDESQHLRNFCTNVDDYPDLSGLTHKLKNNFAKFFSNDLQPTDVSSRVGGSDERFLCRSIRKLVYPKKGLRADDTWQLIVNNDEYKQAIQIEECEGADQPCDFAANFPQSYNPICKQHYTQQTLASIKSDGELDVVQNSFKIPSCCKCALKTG

GST‐ETS1, glutathione S‐transferase‐tagged ETS1 (enzyme)
degradation of Spz by purified ETS1 (SDS‐PAGE band intensity, 0–4 h, 1 mM each CoCl2 and CaCl2): about half within 1 h, 80% after 4 h: 80%
